Legend:
[1] = target: Dengue serotype 3 VLP (The Native Antigen Company), wild type (dengue virus serotype 3); assay: competition ELISA on VLP, unlabelled 4G2 at 10 micrograms per ml against biotinylated 4G2
[2] = target: wild type dengue serotype 2 exodomain, HEK293-produced (The Native Antigen Company DENV2-ENV) (dengue virus serotype 2); assay: ELISA, His-tagged exodomain captured by anti-His-tag antibody, 4G2 titrated (FIG. 5a)
[3] = target: wild type dengue serotype 4 exodomain (The Native Antigen Company DENV4-ENV) (dengue virus serotype 4); assay: as above

fusion-loop antibody 4G2 (The Native Antigen Company AbFLAVENV-4G2)
% inhibition [1]: 80% | low antibody concentration still giving a signal above background [2]: 250 pg/mL | low antibody concentration still giving a signal above background [3]: 250 pg/mL

Reference: patent publication US20190300580A1
